Experimental data reported in patent publication US20200264182A1, “METHOD FOR DETECTING PROSTATE CANCER” (J-OIL MILLS, INC., priority 2017, published 2020).

How the values were obtained:
[1] = target: serum fucosylated PSA (prostate specific antigen) (human) (UniProt P07288); assay: sandwich ELISA, anti-PSA antibody capture, biotin-lectin detection, pH 7.4; serum of Prostate cancer 8 (GS 8)
[2] = target: serum fucosylated PSA (prostate specific antigen) (human) (UniProt P07288); assay: sandwich ELISA, anti-PSA antibody capture, biotin-lectin detection, pH 7.4; serum of Prostate cancer 3 (GS 6)
[3] = target: serum fucosylated PSA (prostate specific antigen) (human) (UniProt P07288); assay: sandwich ELISA, anti-PSA antibody capture, biotin-lectin detection, pH 7.4; sera of subgroup Negative (GS5 or less), n=2
[4] = target: serum fucosylated PSA (prostate specific antigen) (human) (UniProt P07288); assay: sandwich ELISA, anti-PSA antibody capture, biotin-lectin detection, pH 7.4; serum of Healthy 1
[5] = target: serum fucosylated PSA (prostate specific antigen) (human) (UniProt P07288); assay: sandwich ELISA, anti-PSA antibody capture, biotin-lectin detection, pH 7.4; serum of Healthy 7
[6] = target: serum fucosylated PSA (prostate specific antigen) (human) (UniProt P07288); assay: sandwich ELISA, anti-PSA antibody capture, biotin-lectin detection, pH 7.4; serum of Healthy 6
[7] = target: serum fucosylated PSA (prostate specific antigen) (human) (UniProt P07288); assay: sandwich ELISA, anti-PSA antibody capture, biotin-lectin detection, pH 7.4; sera of subgroup GS6, n=2
[8] = target: serum fucosylated PSA (prostate specific antigen) (human) (UniProt P07288); assay: sandwich ELISA, anti-PSA antibody capture, biotin-lectin detection, pH 7.4; serum of Prostate cancer 1 (GS 4)
[9] = target: serum fucosylated PSA (prostate specific antigen) (human) (UniProt P07288); assay: sandwich ELISA, anti-PSA antibody capture, biotin-lectin detection, pH 7.4; sera of subgroup GS8 or more, n=3
[10] = target: serum fucosylated PSA (prostate specific antigen) (human) (UniProt P07288); assay: sandwich ELISA, anti-PSA antibody capture, biotin-lectin detection, pH 7.4; serum of Healthy 5
[11] = target: serum fucosylated PSA (prostate specific antigen) (human) (UniProt P07288); assay: sandwich ELISA, anti-PSA antibody capture, biotin-lectin detection, pH 7.4; serum of Prostate cancer 4 (GS 6)
[12] = target: serum fucosylated PSA (prostate specific antigen) (human) (UniProt P07288); assay: sandwich ELISA, anti-PSA antibody capture, biotin-lectin detection, pH 7.4; sera of subgroup GS7, n=2
[13] = target: serum fucosylated PSA (prostate specific antigen) (human) (UniProt P07288); assay: sandwich ELISA, anti-PSA antibody capture, biotin-lectin detection, pH 7.4; serum of Prostate cancer 6 (GS 7)
[14] = target: serum fucosylated PSA (prostate specific antigen) (human) (UniProt P07288); assay: sandwich ELISA, anti-PSA antibody capture, biotin-lectin detection, pH 7.4; serum of Healthy 3
[15] = target: serum fucosylated PSA (prostate specific antigen) (human) (UniProt P07288); assay: sandwich ELISA, anti-PSA antibody capture, biotin-lectin detection, pH 7.4; serum of Prostate cancer 9 (GS 8)
[16] = target: serum fucosylated PSA (prostate specific antigen) (human) (UniProt P07288); assay: sandwich ELISA, anti-PSA antibody capture, biotin-lectin detection, pH 7.4; serum of Healthy 2
[17] = target: serum fucosylated PSA (prostate specific antigen) (human) (UniProt P07288); assay: sandwich ELISA, anti-PSA antibody capture, biotin-lectin detection, pH 7.4; serum of Prostate cancer 2 (GS 5)
[18] = target: serum fucosylated PSA (prostate specific antigen) (human) (UniProt P07288); assay: sandwich ELISA, anti-PSA antibody capture, biotin-lectin detection, pH 7.4; serum of Healthy 4
[19] = target: serum fucosylated PSA (prostate specific antigen) (human) (UniProt P07288); assay: sandwich ELISA, anti-PSA antibody capture, biotin-lectin detection, pH 7.4; sera of the prostate cancer patient group (n=9)
[20] = target: serum fucosylated PSA (prostate specific antigen) (human) (UniProt P07288); assay: sandwich ELISA, anti-PSA antibody capture, biotin-lectin detection, pH 7.4; sera of the healthy person group (n=7)
[21] = target: serum fucosylated PSA (prostate specific antigen) (human) (UniProt P07288); assay: sandwich ELISA, anti-PSA antibody capture, biotin-lectin detection, pH 7.4; serum of Prostate cancer 5 (GS 7)
[22] = target: serum fucosylated PSA (prostate specific antigen) (human) (UniProt P07288); assay: sandwich ELISA, anti-PSA antibody capture, biotin-lectin detection, pH 7.4; serum of Prostate cancer 7 (GS 8)

- AAL reaction value [1]: 1010 U/mL
- AAL reaction value [2]: 1150 U/mL
- AAL reaction value (mean value) [3]: 932 U/mL
- AAL reaction value (median value) [3]: 932 U/mL
- AAL reaction value [4]: 1100 U/mL
- AAL reaction value [5]: 1030 U/mL
- AAL reaction value [6]: 1190 U/mL
- AAL reaction value (mean value) [7]: 1040 U/mL
- AAL reaction value (median value) [7]: 1040 U/mL
- AAL reaction value [8]: 831 U/mL
- AAL reaction value (mean value) [9]: 1070 U/mL
- AAL reaction value (median value) [9]: 1010 U/mL
- AAL reaction value [10]: 32.3 U/mL
- AAL reaction value [11]: 926 U/mL
- AAL reaction value (mean value) [12]: 993 U/mL
- AAL reaction value (median value) [12]: 993 U/mL
- AAL reaction value [13]: 962 U/mL
- AAL reaction value [14]: 1060 U/mL
- AAL reaction value [15]: 988 U/mL
- AAL reaction value [16]: 855 U/mL
- AAL reaction value [17]: 1030 U/mL
- AAL reaction value [18]: 115 U/mL
- AAL reaction value (average value) [19]: 1020 U/mL
- AAL reaction value (median value) [19]: 1010 U/mL
- AAL reaction value (average value) [20]: 769 U/mL
- AAL reaction value (median value) [20]: 1030 U/mL
- AAL reaction value [21]: 1020 U/mL
- AAL reaction value [22]: 1210 U/mL
Substance: Aleuria aurantia lectin (AAL), biotin-labeled (from UniProt P18891 2-313)
